T1: FcγRIIb extracellular domain with C-terminal His tag (human, UniProt P31994 43-217)
T1 construct: extracellular domain; also called 2b; FcgRIIb; not shown: His tag at the C terminus
T1 sequence (looked up): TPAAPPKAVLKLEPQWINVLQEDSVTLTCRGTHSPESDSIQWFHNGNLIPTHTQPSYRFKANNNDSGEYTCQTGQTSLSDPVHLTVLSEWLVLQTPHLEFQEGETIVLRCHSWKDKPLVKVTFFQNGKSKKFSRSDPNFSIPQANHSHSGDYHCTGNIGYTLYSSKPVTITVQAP


Legend:
[1] = target: T2, FcγRIIIa extracellular domain with C-terminal His tag (human, UniProt P08637 17-208); assay: SPR (Biacore), relative to GpH7-A5/GpH7-B3/GpL16-k0 = 100
T2 construct: extracellular domain; also called 3a; FcgRIIIa; not shown: His tag at the C terminus
T2 sequence (P08637 17-208): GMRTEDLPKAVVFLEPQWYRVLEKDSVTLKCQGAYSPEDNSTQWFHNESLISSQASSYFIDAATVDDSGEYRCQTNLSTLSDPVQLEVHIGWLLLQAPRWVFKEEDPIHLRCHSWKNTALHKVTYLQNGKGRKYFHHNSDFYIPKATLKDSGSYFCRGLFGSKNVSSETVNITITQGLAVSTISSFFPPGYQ

[2] = target: T1, FcγRIIb extracellular domain with …; assay: as above

Binder | He/Con_3a [1] | He/Con_2b [2]
GpH7-A5/GpH7-B3 variant S239_01G/GpL16-k0 (antibody, human IgG1, kappa, IgG1, anti-glypican-3; also called He Ab) heavy 1: not shown heavy 2: not shown light: DIVMTQSPLSLPVTPGEPASISCQASESLVHSNRNTYLHWYLQKPGQSPQLLIYKVSNRFSGVPDRFSGSGSGTDFTLKISRVEAEDVGVYYCSQNTHVPPTFGQGTKVEIERTVAAPSVFIFPPSDEQLKSGTASVVCLLNNFYPREAKVQWKVDNALQSGNSQESVTEQDSKDSTYSLSSTLTLSKADYEKHKVYACEVTHQGLSSPVTKSFNRGEC | 76.2 % (control = 100) | 144 % (control = 100)
GpH7-A5/GpH7-B3 variant Y300_19Q/GpL16-k0 (antibody, human IgG1, kappa, IgG1, anti-glypican-3; also called He Ab) heavy 1: not shown heavy 2: not shown light: DIVMTQSPLSLPVTPGEPASISCQASESLVHSNRNTYLHWYLQKPGQSPQLLIYKVSNRFSGVPDRFSGSGSGTDFTLKISRVEAEDVGVYYCSQNTHVPPTFGQGTKVEIERTVAAPSVFIFPPSDEQLKSGTASVVCLLNNFYPREAKVQWKVDNALQSGNSQESVTEQDSKDSTYSLSSTLTLSKADYEKHKVYACEVTHQGLSSPVTKSFNRGEC | 96.3 % (control = 100) | 108 % (control = 100)
GpH7-A5/GpH7-B3 variant S298_08L/GpL16-k0 (antibody, human IgG1, kappa, IgG1, anti-glypican-3; also called He Ab) heavy 1: not shown heavy 2: not shown light: DIVMTQSPLSLPVTPGEPASISCQASESLVHSNRNTYLHWYLQKPGQSPQLLIYKVSNRFSGVPDRFSGSGSGTDFTLKISRVEAEDVGVYYCSQNTHVPPTFGQGTKVEIERTVAAPSVFIFPPSDEQLKSGTASVVCLLNNFYPREAKVQWKVDNALQSGNSQESVTEQDSKDSTYSLSSTLTLSKADYEKHKVYACEVTHQGLSSPVTKSFNRGEC | 73.5 % (control = 100) | 108 % (control = 100)
GpH7-A5/GpH7-B3 variant S267_19Q/GpL16-k0 (antibody, human IgG1, kappa, IgG1, anti-glypican-3; also called He Ab) heavy 1: not shown heavy 2: not shown light: DIVMTQSPLSLPVTPGEPASISCQASESLVHSNRNTYLHWYLQKPGQSPQLLIYKVSNRFSGVPDRFSGSGSGTDFTLKISRVEAEDVGVYYCSQNTHVPPTFGQGTKVEIERTVAAPSVFIFPPSDEQLKSGTASVVCLLNNFYPREAKVQWKVDNALQSGNSQESVTEQDSKDSTYSLSSTLTLSKADYEKHKVYACEVTHQGLSSPVTKSFNRGEC | 65 % (control = 100) | 218 % (control = 100)
GpH7-A5/GpH7-B3 variant S239_05P/GpL16-k0 (antibody, human IgG1, kappa, IgG1, anti-glypican-3; also called He Ab) heavy 1: not shown heavy 2: not shown light: DIVMTQSPLSLPVTPGEPASISCQASESLVHSNRNTYLHWYLQKPGQSPQLLIYKVSNRFSGVPDRFSGSGSGTDFTLKISRVEAEDVGVYYCSQNTHVPPTFGQGTKVEIERTVAAPSVFIFPPSDEQLKSGTASVVCLLNNFYPREAKVQWKVDNALQSGNSQESVTEQDSKDSTYSLSSTLTLSKADYEKHKVYACEVTHQGLSSPVTKSFNRGEC | 14.9 % (control = 100) | 102 % (control = 100)
GpH7-A5/GpH7-B3 variant S267_14T/GpL16-k0 (antibody, human IgG1, kappa, IgG1, anti-glypican-3; also called He Ab) heavy 1: not shown heavy 2: not shown light: DIVMTQSPLSLPVTPGEPASISCQASESLVHSNRNTYLHWYLQKPGQSPQLLIYKVSNRFSGVPDRFSGSGSGTDFTLKISRVEAEDVGVYYCSQNTHVPPTFGQGTKVEIERTVAAPSVFIFPPSDEQLKSGTASVVCLLNNFYPREAKVQWKVDNALQSGNSQESVTEQDSKDSTYSLSSTLTLSKADYEKHKVYACEVTHQGLSSPVTKSFNRGEC | 45.6 % (control = 100) | 104 % (control = 100)
GpH7-A5/GpH7-B3 variant S267_03V/GpL16-k0 (antibody, human IgG1, kappa, IgG1, anti-glypican-3; also called He Ab) heavy 1: not shown heavy 2: not shown light: DIVMTQSPLSLPVTPGEPASISCQASESLVHSNRNTYLHWYLQKPGQSPQLLIYKVSNRFSGVPDRFSGSGSGTDFTLKISRVEAEDVGVYYCSQNTHVPPTFGQGTKVEIERTVAAPSVFIFPPSDEQLKSGTASVVCLLNNFYPREAKVQWKVDNALQSGNSQESVTEQDSKDSTYSLSSTLTLSKADYEKHKVYACEVTHQGLSSPVTKSFNRGEC | 30.8 % (control = 100) | 192 % (control = 100)
GpH7-A5/GpH7-B3 variant S239_07I/GpL16-k0 (antibody, human IgG1, kappa, IgG1, anti-glypican-3; also called He Ab) heavy 1: not shown heavy 2: not shown light: DIVMTQSPLSLPVTPGEPASISCQASESLVHSNRNTYLHWYLQKPGQSPQLLIYKVSNRFSGVPDRFSGSGSGTDFTLKISRVEAEDVGVYYCSQNTHVPPTFGQGTKVEIERTVAAPSVFIFPPSDEQLKSGTASVVCLLNNFYPREAKVQWKVDNALQSGNSQESVTEQDSKDSTYSLSSTLTLSKADYEKHKVYACEVTHQGLSSPVTKSFNRGEC | 79.3 % (control = 100) | 107 % (control = 100)
GpH7-A5/GpH7-B3 variant S239_03V/GpL16-k0 (antibody, human IgG1, kappa, IgG1, anti-glypican-3; also called He Ab) heavy 1: not shown heavy 2: not shown light: DIVMTQSPLSLPVTPGEPASISCQASESLVHSNRNTYLHWYLQKPGQSPQLLIYKVSNRFSGVPDRFSGSGSGTDFTLKISRVEAEDVGVYYCSQNTHVPPTFGQGTKVEIERTVAAPSVFIFPPSDEQLKSGTASVVCLLNNFYPREAKVQWKVDNALQSGNSQESVTEQDSKDSTYSLSSTLTLSKADYEKHKVYACEVTHQGLSSPVTKSFNRGEC | 76.6 % (control = 100) | 108 % (control = 100)
GpH7-A5/GpH7-B3 variant S298_06M/GpL16-k0 (antibody, human IgG1, kappa, IgG1, anti-glypican-3; also called He Ab) heavy 1: not shown heavy 2: not shown light: DIVMTQSPLSLPVTPGEPASISCQASESLVHSNRNTYLHWYLQKPGQSPQLLIYKVSNRFSGVPDRFSGSGSGTDFTLKISRVEAEDVGVYYCSQNTHVPPTFGQGTKVEIERTVAAPSVFIFPPSDEQLKSGTASVVCLLNNFYPREAKVQWKVDNALQSGNSQESVTEQDSKDSTYSLSSTLTLSKADYEKHKVYACEVTHQGLSSPVTKSFNRGEC | 92.6 % (control = 100) | 102 % (control = 100)
GpH7-A5/GpH7-B3 variant S267_07I/GpL16-k0 (antibody, human IgG1, kappa, IgG1, anti-glypican-3; also called He Ab) heavy 1: not shown heavy 2: not shown light: DIVMTQSPLSLPVTPGEPASISCQASESLVHSNRNTYLHWYLQKPGQSPQLLIYKVSNRFSGVPDRFSGSGSGTDFTLKISRVEAEDVGVYYCSQNTHVPPTFGQGTKVEIERTVAAPSVFIFPPSDEQLKSGTASVVCLLNNFYPREAKVQWKVDNALQSGNSQESVTEQDSKDSTYSLSSTLTLSKADYEKHKVYACEVTHQGLSSPVTKSFNRGEC | 25.2 % (control = 100) | 192 % (control = 100)
GpH7-A5/GpH7-B3 variant S239_08L/GpL16-k0 (antibody, human IgG1, kappa, IgG1, anti-glypican-3; also called He Ab) heavy 1: not shown heavy 2: not shown light: DIVMTQSPLSLPVTPGEPASISCQASESLVHSNRNTYLHWYLQKPGQSPQLLIYKVSNRFSGVPDRFSGSGSGTDFTLKISRVEAEDVGVYYCSQNTHVPPTFGQGTKVEIERTVAAPSVFIFPPSDEQLKSGTASVVCLLNNFYPREAKVQWKVDNALQSGNSQESVTEQDSKDSTYSLSSTLTLSKADYEKHKVYACEVTHQGLSSPVTKSFNRGEC | 95.3 % (control = 100) | 140 % (control = 100)
GpH7-A5/GpH7-B3 variant S267_06M/GpL16-k0 (antibody, human IgG1, kappa, IgG1, anti-glypican-3; also called He Ab) heavy 1: not shown heavy 2: not shown light: DIVMTQSPLSLPVTPGEPASISCQASESLVHSNRNTYLHWYLQKPGQSPQLLIYKVSNRFSGVPDRFSGSGSGTDFTLKISRVEAEDVGVYYCSQNTHVPPTFGQGTKVEIERTVAAPSVFIFPPSDEQLKSGTASVVCLLNNFYPREAKVQWKVDNALQSGNSQESVTEQDSKDSTYSLSSTLTLSKADYEKHKVYACEVTHQGLSSPVTKSFNRGEC | 66 % (control = 100) | 210 % (control = 100)
GpH7-A5/GpH7-B3 variant S267_10E/GpL16-k0 (antibody, human IgG1, kappa, IgG1, anti-glypican-3; also called He Ab) heavy 1: not shown heavy 2: not shown light: DIVMTQSPLSLPVTPGEPASISCQASESLVHSNRNTYLHWYLQKPGQSPQLLIYKVSNRFSGVPDRFSGSGSGTDFTLKISRVEAEDVGVYYCSQNTHVPPTFGQGTKVEIERTVAAPSVFIFPPSDEQLKSGTASVVCLLNNFYPREAKVQWKVDNALQSGNSQESVTEQDSKDSTYSLSSTLTLSKADYEKHKVYACEVTHQGLSSPVTKSFNRGEC | 91.9 % (control = 100) | 379 % (control = 100)
GpH7-A5/GpH7-B3 variant V266_06M/GpL16-k0 (antibody, human IgG1, kappa, IgG1, anti-glypican-3; also called He Ab) heavy 1: not shown heavy 2: not shown light: DIVMTQSPLSLPVTPGEPASISCQASESLVHSNRNTYLHWYLQKPGQSPQLLIYKVSNRFSGVPDRFSGSGSGTDFTLKISRVEAEDVGVYYCSQNTHVPPTFGQGTKVEIERTVAAPSVFIFPPSDEQLKSGTASVVCLLNNFYPREAKVQWKVDNALQSGNSQESVTEQDSKDSTYSLSSTLTLSKADYEKHKVYACEVTHQGLSSPVTKSFNRGEC | 85.8 % (control = 100) | 251 % (control = 100)
GpH7-A5/GpH7-B3 variant S267_08L/GpL16-k0 (antibody, human IgG1, kappa, IgG1, anti-glypican-3; also called He Ab) heavy 1: not shown heavy 2: not shown light: DIVMTQSPLSLPVTPGEPASISCQASESLVHSNRNTYLHWYLQKPGQSPQLLIYKVSNRFSGVPDRFSGSGSGTDFTLKISRVEAEDVGVYYCSQNTHVPPTFGQGTKVEIERTVAAPSVFIFPPSDEQLKSGTASVVCLLNNFYPREAKVQWKVDNALQSGNSQESVTEQDSKDSTYSLSSTLTLSKADYEKHKVYACEVTHQGLSSPVTKSFNRGEC | 19.5 % (control = 100) | 109 % (control = 100)
GpH7-A5/GpH7-B3 variant S239_06M/GpL16-k0 (antibody, human IgG1, kappa, IgG1, anti-glypican-3; also called He Ab) heavy 1: not shown heavy 2: not shown light: DIVMTQSPLSLPVTPGEPASISCQASESLVHSNRNTYLHWYLQKPGQSPQLLIYKVSNRFSGVPDRFSGSGSGTDFTLKISRVEAEDVGVYYCSQNTHVPPTFGQGTKVEIERTVAAPSVFIFPPSDEQLKSGTASVVCLLNNFYPREAKVQWKVDNALQSGNSQESVTEQDSKDSTYSLSSTLTLSKADYEKHKVYACEVTHQGLSSPVTKSFNRGEC | 78.2 % (control = 100) | 101 % (control = 100)
GpH7-A5/GpH7-B3 variant S267_01G/GpL16-k0 (antibody, human IgG1, kappa, IgG1, anti-glypican-3; also called He Ab) heavy 1: not shown heavy 2: not shown light: DIVMTQSPLSLPVTPGEPASISCQASESLVHSNRNTYLHWYLQKPGQSPQLLIYKVSNRFSGVPDRFSGSGSGTDFTLKISRVEAEDVGVYYCSQNTHVPPTFGQGTKVEIERTVAAPSVFIFPPSDEQLKSGTASVVCLLNNFYPREAKVQWKVDNALQSGNSQESVTEQDSKDSTYSLSSTLTLSKADYEKHKVYACEVTHQGLSSPVTKSFNRGEC | 53.8 % (control = 100) | 105 % (control = 100)

From US20150344570A1 (published 2015)
